Reference: paper doi:10.1101/2020.07.28.225359 (bioRxiv, 2020)

Key:
[1] = target: TRIM21 coiled-coil (CC235) (human) (UniProt P19474); assay: ITC
[2] = target: TRIM21 coiled-coil (CC235) (human) (UniProt P19474); assay: SEC-MALS
SAXS = target: the molecule itself; assay: SAXS

Molecule | Kd [1] [µM] | dH (dimer dissociation) [1] [kcal/mol] | stoichiometry N [2] | stoichiometry N (SAXS)
TRIM21 coiled-coil (CC235) (from UniProt P19474 132-235) (domain or fragment) | 7 | 65 | 2 | –
MBP-T21CC (MBPCC235) (domain or fragment, human, UniProt P19474 132-235, looked up) AQEYQEKLQVALGELRRKQELAEKLEVEIAIKRADWKKTVETQKSRIHAEFVQQKNFLVEEEQRQLQELEKDEREQLRILGEKEAKLAQQSQALQELISELDRR | – | – | – | 2
